Measured values: IntAct's records for PubMed 19737519

What was measured:
[1] = target: nle1_yeast RSA4 (UniProt P25382)
[2] = target: nle1_yeast RSA4 (UniProt P25382); remark: listed apart in the source

Chain of UniProt P25382 (P25382 whole entry): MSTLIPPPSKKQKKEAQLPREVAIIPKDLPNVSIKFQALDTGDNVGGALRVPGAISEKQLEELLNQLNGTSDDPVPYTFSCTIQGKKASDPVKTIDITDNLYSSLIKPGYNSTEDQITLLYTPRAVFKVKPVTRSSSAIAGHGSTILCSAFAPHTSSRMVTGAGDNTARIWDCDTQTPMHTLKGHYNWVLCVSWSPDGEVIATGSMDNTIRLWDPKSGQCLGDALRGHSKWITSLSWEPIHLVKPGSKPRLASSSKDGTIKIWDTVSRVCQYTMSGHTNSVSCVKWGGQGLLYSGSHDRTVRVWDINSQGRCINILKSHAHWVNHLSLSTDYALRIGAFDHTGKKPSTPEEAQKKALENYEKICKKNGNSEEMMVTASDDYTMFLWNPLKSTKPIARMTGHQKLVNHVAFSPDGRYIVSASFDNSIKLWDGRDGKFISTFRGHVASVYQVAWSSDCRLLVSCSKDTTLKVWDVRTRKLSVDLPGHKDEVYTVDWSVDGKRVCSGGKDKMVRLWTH

| Substance | effect of a mutation on the interaction [1] | effect of a mutation on the interaction [2] |
| --- | --- | --- |
| Midasin (Saccharomyces cerevisiae), Q12019 S4712T | decreasing interaction |  |
| Midasin (Saccharomyces cerevisiae), Q12019 S4712A;S4714A | disrupting interaction | decreasing interaction |
